Data published in paper PMC8946150, “Microsphere Peptide-Based Immunoassay for the Detection of Recombinant Bovine Somatotropin in Injection Preparations” (Biosensors, 2022).

Assays:
MAb 4H12 [1] = assay: MIPA binding of MAb 4H12 to peptide- or rbST-coupled microspheres; settings: peptide or protein coupled to microspheres, MAGPIX read-out
Protocol: (§1) Microsphere preparation was executed according to Bremer et al. with the exception that Magplex® microsphere sets instead of seroMAP microspheres were used. During the procedure, microspheres were trapped using a magnet (1 min) and after removal of the supernatant, trapped microspheres were resuspended by vortexing (1 min). The peptides pep, pep-K, pep-peg, pep-aca and rbST standard were coupled to the different internally dyed microsphere sets, i.e., microsphere set numbers 012, 043, 029, 038 and 064, respectively (Figure 2). The internal dye gives the microsphere set a unique spectral signature, and consequently, a unique read-out region. For each microsphere set, 2.5 × 10^6 microspheres were covalently coupled with a two-step carbodiimide reaction using 500 μL of 100 µg mL^−1 peptide in boric acid solution (100 mM boric acid, 1M NaCl, adjusted to pH 8.3 with NaOH), and 100 µg mL^−1 rbST in MES buffer (50 mM MES pH 5.0). After coupling, the microspheres were stable for over 1 year when stored in a blocking buffer (PBS, 0.1% BSA, 0.02% Tween-20 and 0.05% NaN3) at 2–8 °C in the dark until use, with the exception for the microspheres measured with XPS, which were stored in Milli-Q water until use.
(§2) In this procedure, all dilution and washing steps were executed using PBST containing 0.1% BSA. In total, 100 μL of rbST, eST, pST and hST standard solution or injection preparation extract were added to a low bind 96-well microtiter plate. Next, 10 μL of 20-, 2-, 2-, 1- and 0.7 ng mL^−1 antibody for microspheres coated with, respectively, pep, pep-peg, pep-aca, k-pep and rbST and microspheres (10 μL diluted suspension containing about 1250 microspheres per microsphere set) were added to each well. The microtiter plate was incubated for 20 min on a microtiter plate shaker to allow competition between the immobilized rbST epitope peptides or protein on the microspheres and the somatotropin (ST) present in the solution for the available antibody binding sites. After incubation, the microspheres were trapped by a magnet and washed twice. After washing, a 125 μL, 625-times diluted PE labeled Goat anti Mouse antibody was added and incubated for 20 min on a microtiter plate shaker. After this incubation step, microspheres were trapped with a magnet, supernatant removed and 125 µL PBST containing 0.1% BSA added. The plate was briefly mixed on the microtiter plate shaker before measuring on the imaging planar array analyzer (MAGPIX).

MAb 4H12 [2] = assay: Epitope mapping of rbST for MAb 4H12 (Pepscan, ELISA-type read out); format: binding; settings: all four epitope designs (sets 1-4: linear 15-mers, double-Ala, α-helical loop mimics)
Excerpt: The entire sequence of rbST (Figure 1A) was epitope mapped for antibody 4H12 by Pepscan Presto BV (Lelystad, The Netherlands), as described before. Briefly, the rbST sequence was derived from the endogenous bST sequence by replacing the N-terminal alanine (Ala) with a methionine (Met) residue. With this rbST sequence, four sets of peptides were produced and used to determine the binding epitope of MAb 4H12: (i) linear peptides of 15 amino acids in length with an offset of one amino acid (set 1), (ii) linear peptides similar to set 1, with the amino acids on place 10 and 11 replaced by alanine (Ala); a native Ala present on place 10 and/or 11 was replaced by glycine (Gly) (set 2), (iii) α-helical loop mimics of 21 amino acids in length with an offset of one amino acid and cysteine residues on place 1 and 5 to enable connection with an α-helix-inducing mP2 chemical linkage of peptides onto scaffolds (CLIPS, set 3) and (iv) α-helical loop mimics similar to set 3, with the two Cys residues placed on amino acid numbers 1 and 8, which were also linked with mP2 CLIPS (set 4). Binding of Mab 4H12 to the described peptides is quantified using an ELISA-type read out.
Figure 1 Schematic representation of the four epitope mapping approaches to identify peptide-based mimics of recombinant bovine somatotropin (rbST) that bind to the monoclonal antibody 4H12. […]

MAb 4H12 [3] = assay: Inhibition MIPA (microsphere peptide-based immunoassay, indirect competitive format, MAGPIX); format: binding; settings: for recognition / cross-reactivity of somatotropins with MAb 4H12: calibration curves up to 100 µg mL^-1, PBST/BSA; for concentration of full inhibition: somatotropin as competitor in PBST/BSA
Protocol: as §1, §2
Figure 3 Summarized workflow and assay principle of the indirect competitive assay format for somatotropins. In absence of rbST (upper part), MAb 4H12 binds to the peptide-coated microspheres, which enables binding of the PE coupled secondary antibody. The presence of PE results in a high signal in the imaging planar array analyzer. In presence of rbST (lower part), MAb 4H12 binds to the rbST in solution. […] As no PE is present, this will result in a low signal in the imaging planar array analyzer.

MAb 4H12 [4] = assay: Surface plasmon resonance, MAb 4H12 on immobilized rbST or pep-peg; format: binding
Excerpt: (§3) Although the literature often describes the need for spacers in peptide-based biorecognition assays, in our assay format based on the MAb 4H12 and the peptide 115[…]125 biorecognition pair, no spacers were required. […] The presence of peptides on the microspheres was proven by XPS measurements (Supplementary Materials, Figure S2). In addition, the specificity was compared by initial surface plasmon resonance (SPR) experiments, where the pep-peg peptide was coupled to one microfluidic channel and rbST to another channel of the sensor surface. The sensor channels were incubated with two different rbST-induced monoclonal antibodies, MAb 4H12, which specifically binds the peptide 115[…]125 and MAb 5E2, which recognizes another, yet unknown, epitope. […] Next, MAb 4H12 concentrations were optimized for the microsphere peptide-based immunoassay to a dilution factor corresponding to a signal intensity of 1000 MFI for the blank standard (dilution buffer, Supplementary Materials, Table S2). […] The antibody concentrations in combination with the respective microspheres were used to determine the sensitivity of MAb 4H12 for the determination of full rbST-protein in standard solutions, as shown in Figure 4. For bot, rbST-protein and peptide immobilized microspheres, typical dose-response curves were obtained, with IC50 values of, respectively, 0.20 µg mL^−1 and 0.11 µg mL^−1.

MAb 5E2 = assay: Surface plasmon resonance, MAb 5E2 on immobilized rbST or pep-peg; format: binding
Excerpt: as §3

dairy cows = settings: according to the manufacturer's protocol; cited from earlier work
Excerpt: RbST is a 191 amino acid long protein hormone that enhances growth and lactating performance in cattle. When administered to dairy cows according to the manufacturer’s protocol, milk production can increase up to 25% [11]. The use of rbST for milk-enhancing properties is approved in several countries, but is banned in the European Union. To control this ban, a strategy to detect rbST misuse in the EU has been described by Smits et al.. The strategy for rbST in serum and milk from dairy cows is based on the digestion of the proteins and detection of rbST-specific peptides formed ...

[5] = microspheres coupled with pep, n = 2

## DLEEGILALMR [pep]
MAb 4H12 [1]
  binding of MAb 4H12 to coupled microspheres: showed binding
MAb 4H12 [2]
  binding between MAb 4H12 and epitope sequence: binding

## MRIEGLADLEL [pep-scr, linear peptide scrambled]
MAb 4H12 [1]
  binding of MAb 4H12 to coupled microspheres: did not show any binding
MAb 4H12 [1]; listed as scrambled peptide
  binding of MAb 4H12 to coupled microspheres: no binding occurred

## hST: human Somatotropin from Sigma-Aldrich
MAb 4H12 [3]; [5]
  recognition / cross-reactivity of somatotropins with MAb 4H12: not able to recognize and bind

B1: rbST: 191 amino acid long protein hormone; rbST protein standard from NHPP (Dr. Parlow) (protein, UniProt P01246 27-217, looked up)
Somatotropin: AFPAMSLSGLFANAVLRAQHLHQLAADTFKEFERTYIPEGQRYSIQNTQVAFCFSETIPAPTGKNEAQQKSDLELLRISLLLIQSWLGPLQFLSRVFTNSLVFGTSDRVYEKLKDLEEGILALMRELEDGTPRAGQILKQTYDKFDTNMRSDDALLKNYGLLSCFRKDLHKTETYLRVMKCRRFGEASCAF
MAb 4H12 [3]; competitor rbST in PBST/0.1% BSA, label = peptide or protein coupled to the microspheres, MAb 4H12 20, 2, 2, 1, 0.7 ng mL^-1 for pep, pep-peg, pep-aca, pep-K, rbST, 20 min incubation, GAM-PE, MAGPIX, four-parameter fit, n = 3
  IC50 of rbST in inhibition MIPA, per microsphere set: 0.20 µg/mL
MAb 4H12 [3]; somatotropin as competitor at 1 µg mL^-1 in PBST/BSA, microspheres coupled with pep, n = 2
  inhibition of MAb 4H12 at 1 µg mL^-1: almost completely inhibits
MAb 4H12 [1]
  binding of MAb 4H12 to coupled microspheres: showed binding
MAb 4H12 [4]
  SPR binding of MAb 4H12: Both MAbs showed binding
MAb 5E2
  SPR binding of MAb 5E2: Both MAbs showed binding
Dairy cows
  increase of milk production: up to 25%

B2: eST: equine somatotropin from Bresagen (protein, UniProt P01245 27-216, looked up)
Somatotropin: FPAMPLSSLFANAVLRAQHLHQLAADTYKEFERAYIPEGQRYSIQNAQAAFCFSETIPAPTGKDEAQQRSDMELLRFSLLLIQSWLGPVQLLSRVFTNSLVFGTSDRVYEKLRDLEEGIQALMRELEDGSPRAGQILKQTYDKFDTNLRSDDALLKNYGLLSCFKKDLHKAETYLRVMKCRRFVESSCAF
MAb 4H12 [3]; [5]
  recognition / cross-reactivity of somatotropins with MAb 4H12: cross-reactivity was seen
  concentration of full inhibition: around 100 µg mL^-1

B3: pST: Porcine Somatotropin from Sigma-Aldrich (protein, UniProt P01248 27-216, looked up)
Somatotropin: FPAMPLSSLFANAVLRAQHLHQLAADTYKEFERAYIPEGQRYSIQNAQAAFCFSETIPAPTGKDEAQQRSDVELLRFSLLLIQSWLGPVQFLSRVFTNSLVFGTSDRVYEKLKDLEEGIQALMRELEDGSPRAGQILKQTYDKFDTNLRSDDALLKNYGLLSCFKKDLHKAETYLRVMKCRRFVESSCAF
MAb 4H12 [3]; [5]
  recognition / cross-reactivity of somatotropins with MAb 4H12: cross-reactivity was seen
  concentration of full inhibition: around 100 µg mL^-1
